# Measurements: EP4596580A1 (Staidson (Beijing) Biopharmaceuticals Co., Ltd., dated 2025)
# Residue numbers refer to the chain shown, from its start.
# T1: His-cynomolgus monkey LIGHT (cynomolgus monkey)
# T1 construct: also called His-cynoLIGHT
# T1 chain: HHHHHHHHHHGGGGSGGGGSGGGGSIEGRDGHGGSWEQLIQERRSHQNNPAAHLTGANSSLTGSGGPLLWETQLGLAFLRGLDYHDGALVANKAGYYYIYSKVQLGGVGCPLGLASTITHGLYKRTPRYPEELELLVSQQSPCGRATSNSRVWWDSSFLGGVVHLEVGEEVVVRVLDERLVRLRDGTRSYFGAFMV
# T2: His-human LIGHT (human)
# T2 construct: also called His-huLIGHT; free LIGHT
# T2 chain: T1 chain with H32P, G33A, Q47E, N48V, D83S, A91V, N92T, N149S, V167A
# T3: His-mouse LIGHT (mouse)
# T3 construct: also called His-musLIGHT
# T3 chain: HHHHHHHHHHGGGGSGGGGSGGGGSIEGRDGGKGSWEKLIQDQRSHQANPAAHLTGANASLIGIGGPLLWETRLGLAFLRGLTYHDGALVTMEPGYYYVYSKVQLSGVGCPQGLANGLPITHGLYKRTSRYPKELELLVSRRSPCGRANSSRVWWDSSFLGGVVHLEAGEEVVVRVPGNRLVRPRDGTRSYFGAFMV
# B1: hum_LT-m37-7 (antibody, human IgG4, V domains shown)
# VH: QVQLVQSGAEVKKPGASVKVSCKASGYSFTGYFINWVRQAPGQGLEWIGRIYPYNVNTFYNQNFKGRATMTADKSTSTAYMELSSLRSEDTAVYYCGRGTHYYGSSGAMDYWGQGTLVTVSS
# VL: EIVMTQSPATLSVSPGERATLSCKASQNVGTAVAWYQQKPGQSPRLLIYSASNRYTGIPARFSGSGSGTEFTLTISSLQSEDFAVYFCQQYSSYPYTFGGGTKVEIK
# notes: humanized from LT-m37
# B2: hum_LT-m37-8 (antibody, human IgG4, V domains shown)
# VH: B1 VH with A68V
# VL: B1 VL
# notes: humanized from LT-m37
# B3: hum_LT-m37-12 (antibody, human IgG4, V domains shown)
# VH: B1 VH with A68V
# VL: B1 VL with M4L, F87Y
# notes: humanized from LT-m37
# B4: hum_LT-m37-11 (antibody, human IgG4, V domains shown)
# VH: B1 VH
# VL: B1 VL with M4L, F87Y
# notes: humanized from LT-m37
# B5: hum_LT-m37-9 (antibody, human IgG4, V domains shown)
# VH: B1 VH with G44S, M70L
# VL: B1 VL with M4L, F87Y
# notes: humanized from LT-m37
# B6: hum_LT-m37-10 (antibody, human IgG4, V domains shown)
# VH: B1 VH with M70L
# VL: B1 VL with M4L, F87Y
# notes: humanized from LT-m37
# B7: LT-m64 (antibody, human IgG4, V domains shown)
# VH: EVKLEESGAELVKPGASVRLSCKTSGYTFTNYYVYWVKQRPGQGLEWIGEINPTNGDPNFNEKFKSKATLTVDKSSSTAYMHLSSLTSEDSAVYYCTRSNWDYGNAMDFWGQGTSVTVSS
# VL: DIVMTQSPASLAVSLGQRATISCKASQSVDFDGDGYMNWYQQKPGQPPKLLIYKASHLDSGIPARFSASGSGTDFTLNIHPVEEEDAATYYCQQSIEDPFTFGSGTKLEIK
# B8: LT-m58 (antibody, human IgG4, V domains shown)
# VH: QVQLQQSGAEMASPGASVTLSCKASGYTFIDHIMNWVKKRPGQGLEWIGRIYPVSGETNYNQKFMGKATFSVDRSSSTVYMVLNSLTSEDPAVYYCGRGSYYWNAMDYWGQGTTLTVSS
# VL: B7 VL with G35S, K54S, H57N, D59E, A68G, F100W, S104G
# B9: LT-m55 (antibody, human IgG4, V domains shown)
# VH: EVQLQQSGAELVKPGASVKLSCKASGYTFATYYMYWVKQRPGQGLEWIGEINPTNGGTIFNEKFKTKATLTVDKSSSTAYMQLSSLTSEDSAVYYCARGNWPYWSFDVWGAGTSVTVSS
# VL: B7 VL with M4L, G35N, K54A, H57N, F100W, S104G
# B10: LT-m17 (antibody, human IgG4, V domains shown)
# VH: QVQLQQSGPELVKPGASVKISCKASGYSFTGYFMNWVKQSHGKSLEWIGRIYPYSGDTFYNQKFNNKATLTVDKSSSTAHLELLSLTSEDSAVYYCGRSEHFGRNYGTGAVDYWGQGTSVTVSS
# VL: DVVMTQTPLSLPVSLGDQASISCRSSQGLVHSNGNTYLHWYLQKPGQSPKLLIYKVSNRFSGVPDRFSGSGSGTDFTLKISRVEAEDLGIYFCSQSTHVPYTFGGGTKLEIK
# B11: LT-m18 (antibody, V domains shown)
# VH: B10 VH with Q1E, Q3K, Q5L, Q6E
# VL: B10 VL with V2I, M4L, T7S, G28S, I90V, Y101L, G105D, K108R
# B12: hum_LT-m85-5 (antibody, human IgG4, V domains shown)
# VH: QVQLVQSGAEVKKPGASVKVSCKASGYTFTSYNVHWVRQAPGQGLEWIGAVYPGNGDTSYNQKFKGRATLTADKSTSTAYMELSSLRSEDTAVYYCARGSYYYTSSYFDHWGQGTLVTVSS
# VL: DIVLTQSPDSLAVSLGERATINCKASQSVDFDGDSYMNWYQQKPGQPPKLLIYTASNLESGIPDRFSGSGSGTDFTLTISSLQAEDVAVYYCQQSYEDPFTFGQGTKVEIK
# notes: humanized from LT-m85
# B13: hum_LT-m85-7 (antibody, human IgG4, V domains shown)
# VH: B12 VH with A79V
# VL: B12 VL
# notes: humanized from LT-m85
# B14: hum_LT-m85-9 (antibody, human IgG4, V domains shown)
# VH: B12 VH with A79V
# VL: B12 VL with L4M, I62V
# notes: humanized from LT-m85
# B15: hum_LT-m85-8 (antibody, human IgG4, V domains shown)
# VH: B12 VH
# VL: B12 VL with L4M, I62V
# notes: humanized from LT-m85
# B16: hum_LT-m85-6 (antibody, human IgG4, V domains shown)
# VH: B12 VH with I48M
# VL: B12 VL
# notes: humanized from LT-m85
# Biological target: T4, hFc-human LIGHT (human)
# T4 construct: also called hFc-huLIGHT
# Assay: competition ELISA, LTβR-His coated, hFc-huLIGHT added
row,IC50,Binder
1,0.069 nM,B1
2,0.0676 nM,B2
3,0.0773 nM,B3
4,0.0864 nM,B4
5,0.083 nM,B5

# Biological target: T1, His-cynomolgus monkey LIGHT
# Assay: ELISA, His-cynoLIGHT coated
row,EC50,Binder
1,0.0474 nM,B1
2,0.0449 nM,B2
3,0.053 nM,B3
4,0.0494 nM,B4
5,0.0463 nM,B6
6,0.0478 nM,B5

# Biological target: T2, His-human LIGHT
# Assay: SPR, Biacore 8K, antibody on CM5 chip
Kd,koff,kon,Binder
0.0557 nM,5.61e-05 s⁻¹,1.01e+06 M⁻¹ s⁻¹,B7
0.0696 nM,2.67e-05 s⁻¹,385000 M⁻¹ s⁻¹,B8
0.0685 nM,6.01e-05 s⁻¹,877000 M⁻¹ s⁻¹,B9

# Biological target: T1, His-cynomolgus monkey LIGHT
# Assay: SPR, Biacore 8K, antibody on CM5 chip
Kd,koff,kon,Binder
0.0487 nM,4.89e-05 s⁻¹,1e+06 M⁻¹ s⁻¹,B7
0.0347 nM,1.24e-05 s⁻¹,357000 M⁻¹ s⁻¹,B8
0.0613 nM,5.86e-05 s⁻¹,956000 M⁻¹ s⁻¹,B9
0.0582 nM,4.24e-06 s⁻¹,72700 M⁻¹ s⁻¹,B10
0.16 nM,1.26e-05 s⁻¹,79100 M⁻¹ s⁻¹,B11

# Biological target: T2, His-human LIGHT
# Assay: SPR, Biacore 8K, antibody on CM5 chip, human LIGHT
Kd,koff,kon,Binder
0.041 nM,5.34e-05 s⁻¹,1.3e+06 M⁻¹ s⁻¹,B1
0.038 nM,4.86e-05 s⁻¹,1.28e+06 M⁻¹ s⁻¹,B2
0.0575 nM,6.75e-05 s⁻¹,1.18e+06 M⁻¹ s⁻¹,B3
0.062 nM,7.69e-05 s⁻¹,1.24e+06 M⁻¹ s⁻¹,B4
0.383 nM,8.03e-05 s⁻¹,210000 M⁻¹ s⁻¹,B5

# Biological target: T4, hFc-human LIGHT
# Assay: competition ELISA, LTβR-His coated, hFc-huLIGHT added
# Remark: another data set of the same source
row,IC50,Binder
1,0.174 nM,B12
2,0.223 nM,B13
3,0.204 nM,B14
4,0.189 nM,B15
5,0.195 nM,B16

# Biological target: T3, His-mouse LIGHT
# Assay: ELISA, His-musLIGHT coated
row,binding result,Binder
1,no binding,B7
2,no binding,B8
3,no binding,B9

# Biological target: T2, His-human LIGHT
# Assay: cell-based or functional assay
row,"IC50, HVEM NF-κB luciferase reporter (293T-HVEM-NF-κB-Luc), free LIGHT",Binder
1,0.264 µg/mL,B7
2,0.318 µg/mL,B8
3,0.264 µg/mL,B9
4,0.184 µg/mL,B10

# Biological target: T2, His-human LIGHT
# Assay: ELISA, His-huLIGHT coated
row,EC50,Binder
1,0.0801 µg/mL,B1
2,0.0795 µg/mL,B2
3,0.0878 µg/mL,B3
4,0.0907 µg/mL,B4
5,0.0918 µg/mL,B6
6,0.0825 µg/mL,B5

# Biological target: LIGHT on the surface of HEK293-LIGHT stable cells (human, UniProt O43557 1-240)
# Assay: cell-based or functional assay
row,"IC50, LTβR NF-κB luciferase reporter, HEK293-LIGHT cells",Binder
1,3.72 µg/mL,B1
2,3.22 µg/mL,B2
3,2.57 µg/mL,B3
4,2.93 µg/mL,B4
5,4.46 µg/mL,B6
6,3.86 µg/mL,B5

# Biological target: T2, His-human LIGHT
# Assay: ELISA, His-huLIGHT coated
# Remark: another data set of the same source
row,EC50,Binder
1,0.0061 nM,B12
2,0.00542 nM,B13
3,0.002 nM,B14
4,0.00951 nM,B15
5,0.00479 nM,B16

# Biological target: T2, His-human LIGHT
# Assay: ELISA, His-huLIGHT coated
# Remark: another data set of the same source
row,EC50,Binder
1,0.0112 µg/mL,B7
2,0.0243 µg/mL,B8
3,0.0332 µg/mL,B9
4,0.0871 µg/mL,B10
5,0.0835 µg/mL,B11

# Biological target: T2, His-human LIGHT
# Assay: cell-based or functional assay
# Remark: another data set of the same source
row,"IC50, LTβR NF-κB luciferase reporter, free LIGHT",Binder
1,0.135 µg/mL,B1
2,0.17 µg/mL,B2
3,0.144 µg/mL,B3
4,0.203 µg/mL,B4
5,0.153 µg/mL,B6
6,0.227 µg/mL,B5
